For orientation: stoichiometry N means a count of units in the complex or per binding partner.

This experiment concerns the target MtbClpC1^F444S-E288A-E626A (Mycobacterium tuberculosis) (UniProt P9WPC9). As to the kind of experiment: cryo-EM structure.

“MtbClpC1^F444S-E288A-E626A (from UniProt P9WPC9 1-848) (enzyme)” registered a stoichiometry N of 6.

The record behind these values is PMC11992174.
